Consider 4 molecules from article PMC6650474, “Plasmodium myosin A drives parasite invasion by an atypical force generating mechanism” (Nature Communications, 2019).

Changes are numbered by the printed parent chain. Names and notes keep the numbering of the source.

First the molecules themselves.
B1: Full-length PfMyoA (Plasmodium falciparum myosin A) heavy chain, wild type, co-expressed with the light chains PfMTIP and PfELC (complex)
chain 1: MAVTNEEIKTASKIVRRVSNVEAFDKSGSVFKGYQIWTDISPTIENDPNIMFVKCVVQQGSKKEKLTVVQIDPPGTGTPYDIDPTHAWNCNSQVDPMSFGDIGLLNHTNIPCVLDFLKHRYLKNQIYTTAVPLIVAINPYKDLGNTTNEWIRRYRDTADHTKLPPHVFTCAREALSNLHGVNKSQTIIVSGESGAGKTEATKQIMRYFASSKSGNMDLRIQTAIMAANPVLEAFGNAKTIRNNNSSRFGRFMQLVISHEGGIRYGSVVAFLLEKSRIITQDDNERSYHIFYQFLKGANSTMKSKFGLKGVTEYKLLNPNSTEVSGVDDVKDFEEVIESLKNMELSESDIEVIFSIVAGILTLGNVRLIEKQEAGLSDAAAIMDEDMGVFNKACELMYLDPELIKREILIKVTVAGGTKIEGRWNKNDAEVLKSSLCKAMYEKLFLWIIRHLNSRIEPEGGFKTFMGMLDIFGFEVFKNNSLEQLFINITNEMLQKNFVDIVFERESKLYKDEGISTAELKYTSNKEVINVLCEKGKSVLSYLEDQCLAPGGTDEKFVSSCATNLKENNKFTPAKVASNKNFIIQHTIGPIQYCAESFLLKNKDVLRGDLVEVIKDSPNPIVQQLFEGQVIEKGKIAKGSLIGSQFLNQLTSLMNLINSTEPHFIRCIKPNENKKPLEWCEPKILIQLHALSILEALVLRQLGYSYRRTFEEFLYQYKFVDIAAAEDSSVENQNKCVNILKLSGLSESMYKIGKSMVFLKQEGAKILTKIQREKLVEWENCVSVIEAAILKHKYKQKVNKNIPSLLRVQAHIRKKMVAQ
chain 2: MKQECNVCYFNLPDPESTLGPYDNELNYFTWGPGFEYEPEPQRKPLSIEESFENSEESEESVADIQQLEEKVDESDVRIYFNEKSSGGKISIDNASYNARKLGLAPSSIDEKKIKELYGDNLTYEQYLEYLSICVHDKDNVEELIKMFAHFDNNCTGYLTKSQMKNILTTWGDALTDQEAIDALNAFSSEDNIDYKLFCEDILQ
chain 3: MASDMEEKFREAFILFSSCSDHIEMYKFFELMNSFGIILTNDEKAALPNDINMDYWLNFAKKHYNYEQPFKHINNVNEQNTNVQIKIDNFLGIMKALDTRLTESDLNILLQITNPENKSTLNLKTVSQKLTESI
modifications: phosphoserine at 19 (96 ± 1% of the peptides); biotin on the biotin carboxyl carrier protein segment
B2: ΔN version of full-length PfMyoA heavy chain (residues Ala2 through Ser19 removed), co-expressed wit (complex)
chain 1: MNVEAFDKSGSVFKGYQIWTDISPTIENDPNIMFVKCVVQQGSKKEKLTVVQIDPPGTGTPYDIDPTHAWNCNSQVDPMSFGDIGLLNHTNIPCVLDFLKHRYLKNQIYTTAVPLIVAINPYKDLGNTTNEWIRRYRDTADHTKLPPHVFTCAREALSNLHGVNKSQTIIVSGESGAGKTEATKQIMRYFASSKSGNMDLRIQTAIMAANPVLEAFGNAKTIRNNNSSRFGRFMQLVISHEGGIRYGSVVAFLLEKSRIITQDDNERSYHIFYQFLKGANSTMKSKFGLKGVTEYKLLNPNSTEVSGVDDVKDFEEVIESLKNMELSESDIEVIFSIVAGILTLGNVRLIEKQEAGLSDAAAIMDEDMGVFNKACELMYLDPELIKREILIKVTVAGGTKIEGRWNKNDAEVLKSSLCKAMYEKLFLWIIRHLNSRIEPEGGFKTFMGMLDIFGFEVFKNNSLEQLFINITNEMLQKNFVDIVFERESKLYKDEGISTAELKYTSNKEVINVLCEKGKSVLSYLEDQCLAPGGTDEKFVSSCATNLKENNKFTPAKVASNKNFIIQHTIGPIQYCAESFLLKNKDVLRGDLVEVIKDSPNPIVQQLFEGQVIEKGKIAKGSLIGSQFLNQLTSLMNLINSTEPHFIRCIKPNENKKPLEWCEPKILIQLHALSILEALVLRQLGYSYRRTFEEFLYQYKFVDIAAAEDSSVENQNKCVNILKLSGLSESMYKIGKSMVFLKQEGAKILTKIQREKLVEWENCVSVIEAAILKHKYKQKVNKNIPSLLRVQAHIRKKMVAQ
chain 2: B1 chain 2
chain 3: B1 chain 3
modifications: biotin on the biotin carboxyl carrier protein segment
B3: Full-length PfMyoA heavy chain K764E (charge reversal in the converter), co-expressed with the light chains PfMTIP and PfELC (complex)
chain 1: B1 chain 1 with K764E
chain 2: B1 chain 2
chain 3: B1 chain 3
modifications: biotin on the biotin carboxyl carrier protein segment
B4: Full-length PfMyoA heavy chain S19A (phospho-null), co-expressed with the light chains PfMTIP and PfELC (complex)
chain 1: B1 chain 1 with S19A
chain 2: B1 chain 2
chain 3: B1 chain 3
modifications: biotin on the biotin carboxyl carrier protein segment

The test has as its target Skeletal muscle actin (chicken, UniProt P68139 1-377). Briefly: cell-based or functional assay.
Regarding B1, the “Km for skeletal actin of the actin-activated ATPase activity (Michaelis-Menten fit, 30 °C, 5 mM KCl)” value was 30.3 µM. The result for B2 reads 7.34 µM. The same measure for B3: 18.2 µM; for B4: 8.5 µM.
